One data set deals with Recombinant DPP-IV (Homo sapiens, UniProt P27487). Nature of the data set: DPP-IV resistance assay by mass spectrometry. As to the method: The peptides were then desalted and concentrated on a C18 peptide micro trap (Michrom Bioresources, Inc., Auburn, Calif.) prior to introduction to a LTQ FT™ mass spectrometer (Thermo-Electron Corp., Waltham, Mass.) via an autosampler (Michrom Bioresources, Inc.). Peptides were eluted from a C5 packed 75 μm fused silica pico-frit column (New Objective, Inc., Woburn, Mass.) using a 5-60% acetonitrile/water gradient over 50 minutes at a flow rate of 500 nl/min. Extracted ion mass windows for the calculated m/z values of the most dominant charge states were used to search for both the parent compound and the theoretical hydrolyzed products within a given chromatogram. Exact mass was confirmed for each charge state by FT. The percentage of hydrolysis catalyzed by DPP-IV was estimated by dividing the area of product ions by the area of the total (parent+product) ions.
The estimated cleavage product conversion is based on the ratio of the ion extract area (indicated on top of the peaks) for [product ion]^5+ over that for total ions ([Mother Ion]^5++[product ion]^5+). The m/z ratios used to search for the expected ions are listed on the right side of the plots.

The conditions of data set [1]: in vivo; cited from earlier work.

The values that follow come from US8598314B2 (priority 2007, dated 2013).

Read-outs that look alike come from different tables or passages of the source.

Chain of Recombinant DPP-IV (P27487 whole entry, species assumed, the tested form may be a part): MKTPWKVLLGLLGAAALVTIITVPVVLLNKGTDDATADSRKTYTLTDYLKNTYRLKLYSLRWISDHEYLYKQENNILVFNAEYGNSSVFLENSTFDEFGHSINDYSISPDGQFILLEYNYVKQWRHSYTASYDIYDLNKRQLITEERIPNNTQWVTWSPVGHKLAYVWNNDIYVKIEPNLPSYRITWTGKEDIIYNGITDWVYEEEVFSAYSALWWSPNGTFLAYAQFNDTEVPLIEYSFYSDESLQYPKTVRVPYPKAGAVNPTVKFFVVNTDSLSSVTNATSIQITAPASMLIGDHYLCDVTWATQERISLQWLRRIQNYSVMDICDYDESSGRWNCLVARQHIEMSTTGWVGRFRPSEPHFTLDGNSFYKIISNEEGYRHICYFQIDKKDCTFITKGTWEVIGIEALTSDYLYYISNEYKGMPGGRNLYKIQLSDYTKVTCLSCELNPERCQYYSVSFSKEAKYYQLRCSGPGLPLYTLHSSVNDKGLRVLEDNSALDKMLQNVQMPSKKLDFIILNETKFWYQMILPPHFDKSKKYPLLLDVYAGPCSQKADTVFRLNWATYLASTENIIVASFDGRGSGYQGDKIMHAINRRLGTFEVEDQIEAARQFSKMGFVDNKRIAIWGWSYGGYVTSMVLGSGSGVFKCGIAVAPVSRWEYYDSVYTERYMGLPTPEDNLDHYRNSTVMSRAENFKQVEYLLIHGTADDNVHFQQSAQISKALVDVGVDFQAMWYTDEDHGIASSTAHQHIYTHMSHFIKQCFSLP

For `CC[C@H](C)[C@H](NC(=O)[C@H](Cc1ccccc1)NC(=O)[C@H](CCC(=O)O)NC(=O)[C@H](CCCCN)NC(=O)[C@H](C)NC(=O)[C@H](C)NC(=O)[C@H](CCC(N)=O)NC(=O)CNC(=O)[C@H](CCC(=O)O)NC(=O)[C@H](CC(C)C)NC(=O)[C@H](Cc1ccc(O)cc1)NC(=O)[C@H](CO)NC(=O)[C@H](CO)NC(=O)[C@@H](NC(=O)[C@H](CC(=O)O)NC(=O)[C@H](CO)NC(=O)[C@@H](NC(=O)[C@H](Cc1ccccc1)NC(=O)[C@@H](NC(=O)CNC(=O)[C@H](CCC(=O)O)NC(=O)[C@H](C)NC(=O)[C@@H](N)Cc1c[nH]cn1)[C@@H](C)O)[C@@H](C)O)C(C)C)C(=O)N[C@@H](C)C(=O)N[C@@H](Cc1c[nH]c2ccccc12)C(=O)N[C@@H](CC(C)C)C(=O)N[C@H](C(=O)N[C@@H](CCCCN)C(=O)NCC(=O)N[C@@H](CCCNC(=N)N)C(=O)NCC(=O)NCC(=O)NCC(=O)NCCCC[C@H](N)C(=O)N1CCSC1)C(C)C` [Compound 4844, GLP-1(7-37)-GG-(S)-2,6-diamino-1-(thiazolidin-3-yl)hexan-1-one amide], in the data set with Recombinant DPP-IV (treated with 0.1 mU DPP-IV), the “DPP-IV resistance (in words)” value is “expected product ions were not observed”.

Regarding `CC[C@H](C)[C@H](NC(=O)[C@H](Cc1ccccc1)NC(=O)[C@H](CCC(=O)O)NC(=O)[C@H](CCCCN)NC(=O)[C@H](C)NC(=O)[C@H](C)NC(=O)[C@H](CCC(N)=O)NC(=O)CNC(=O)[C@H](CCC(=O)O)NC(=O)[C@H](CC(C)C)NC(=O)[C@H](Cc1ccc(O)cc1)NC(=O)[C@H](CO)NC(=O)[C@H](CO)NC(=O)[C@@H](NC(=O)[C@H](CC(=O)O)NC(=O)[C@H](CO)NC(=O)[C@@H](NC(=O)[C@H](Cc1ccccc1)NC(=O)[C@@H](NC(=O)CNC(=O)[C@H](CCC(=O)O)NC(=O)[C@H](C)NC(=O)[C@@H](N)Cc1c[nH]cn1)[C@@H](C)O)[C@@H](C)O)C(C)C)C(=O)N[C@@H](C)C(=O)N[C@@H](Cc1c[nH]c2ccccc12)C(=O)N[C@@H](CC(C)C)C(=O)N[C@H](C(=O)N[C@@H](CCCCN)C(=O)NCC(=O)N[C@@H](CCCNC(=N)N)C(=O)NCC(=O)NCC(=O)NCC(=O)NCCCC[C@H](N)C(=O)N1CCSC1C#N)C(C)C` (stereo partly drawn) [Compound 4845, GLP-1(7-37)-GG-(S)-2,6-diamino-1-(thiazolidin-2-cyano-3-yl)hexan-1-one amide], in the data set with Recombinant DPP-IV, the “DPP-IV resistance (in words)” value was “expected product ions were not observed”.

Consider `CC[C@H](C)[C@H](NC(=O)[C@H](Cc1ccccc1)NC(=O)[C@H](CCC(=O)O)NC(=O)[C@H](CCCCN)NC(=O)[C@H](C)NC(=O)[C@H](C)NC(=O)[C@H](CCC(N)=O)NC(=O)CNC(=O)[C@H](CCC(=O)O)NC(=O)[C@H](CC(C)C)NC(=O)[C@H](Cc1ccc(O)cc1)NC(=O)[C@H](CO)NC(=O)[C@H](CO)NC(=O)[C@@H](NC(=O)[C@H](CC(=O)O)NC(=O)[C@H](CO)NC(=O)[C@@H](NC(=O)[C@H](Cc1ccccc1)NC(=O)[C@@H](NC(=O)CNC(=O)[C@H](CCC(=O)O)NC(=O)[C@H](C)NC(=O)[C@@H](N)Cc1c[nH]cn1)[C@@H](C)O)[C@@H](C)O)C(C)C)C(=O)N[C@@H](C)C(=O)N[C@@H](Cc1c[nH]c2ccccc12)C(=O)N[C@@H](CC(C)C)C(=O)N[C@H](C(=O)N[C@@H](CCCCN)C(=O)NCC(=O)N[C@@H](CCCNC(=N)N)C(N)=O)C(C)C` [GLP-1, reference compound], for which the metabolic clearance rate in data set [1] was 12 to 13 min.
